Reference: the RNAGym collection of RNA variant scans (doi:10.1073/pnas.2313332121)

B1: TPR t1 (parent)
chain: GACCAAUCUGCCCUCAGAGCUCGAGAACAUCUUCGGAUGCAGAGGAGGCAGGCUUCGGUGGCGCGAUAGCGCCAACGUCCUCAACCUCCAAUGCAUCCCACCACAUGAUGAUGCCUGAAGAGCCUUGGUUUUUUG

Variants of: B1
Experiment: polymerase ribozyme fitness, log enrichment relative to wild type (log ratio); higher = more active; in vitro selection for triplet polymerase activity
Outline: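 Mutant libraries of each subunit of a heterodimeric triplet polymerase ribozyme were built by PCR and transcribed. Each library went through one round of in vitro selection in triplicate: annealing with biotinylated primer, partner subunit and triplets, frozen incubation at −7 °C, gel excision of extended constructs, streptavidin-bead capture and RT-PCR. Input and output libraries were Illumina-sequenced; only genotypes with ≥10 input reads and ≥1 read per output were kept. Fitness is log2(genotype enrichment/wild-type enrichment), using inverse-variance-weighted replicate averages.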

Variant	polymerase ribozyme fitness (log ratio)
C102A U125C	-4.05
C102A U106A C115A U129A	-4.5
U106G U130G	-1.21
C98A C123A	-3.79
C102U C123U	-0.21
C102U C123A	-2.63
C101A C115A G120C	-0.291
U106A C114G U133C	-2.16
C104A G127A	-3.1
C101G U112A	0.152
U106C G113U	-3.01
G110C A111G	-5.74
U106A G117U	-2.19
C101A A121U	-0.684
U106A U126C	-0.645
A105U C115U	-1.94
C102U U132C	-1.91
C98U U106A G110U G120C	-2.16
C99A A103C C104A	-4.54
G110A C114G	-6.64
G110A C114A	-6.15

Variant	polymerase ribozyme fitness (log ratio)
G107C G120U	-3.85
C99A G110A	-5.17
C99A G110U	-4.34
A105G G113U	-5.05
C104U G120U	-0.787
G107U G117C	-4.7
C102G G120U	-6.6
C97U U116C	-0.713
G110C C123G	-4.09
U106A U109C	-3.27
C102U U130G	-2.52
G107U	-4.78
G107A	-4.86
G107C	-5.46
A100C C104U A121G	1.96
G107C G135U	-5.77
A108U U112A	-4.85
A108U U112C	-5.97
U106A C115U G127U	-1.18
C97A U125A	-5.2
C98A A118U	-4.71

Variant	polymerase ribozyme fitness (log ratio)
C101G G110A	-4.15
U106A G128C	-2.95
C104A U133A	-1.68
C97G U112A	-3.48
C104U C123A U125G	1.28
C98U G113U	-3.5
C99U G120U	-3.34
A103C C123A	-5.15
C101G U129G	-2.29
C101A A111C	-0.305
A105C C115U	-4.02
C104A G113C	-4.17
C97G G107C A111U	-7.12
A100C A111G	0.924
C98U G117U G120C U132C	-3.23
U109C A121G C124A G127C	-3.66
C101A U106C U133A	-0.867
C99U C115U	-4.48
C102A C124A U130A	-0.438
U106G C123G C124G	1.38
G110C G113A	-6.42

Variant	polymerase ribozyme fitness (log ratio)
C101A C114G	-3.4
A108G G135U	-2.4
A105U G127C	-2.7
A103U G127U U129G	-3.98
G110C A119U	-1.71
C99U G113A G117A	-5.78
C97G C114U	-5.14
C101A C102A A119U U130A	-5.43
C102A G128C U132G G135U	-3.41
C104U C123G	1.92
C97U U129C	-1.16
A100C A121C	0.337
U106A U112A U129C	0.363
C99G C124U	-6.43
A105C A121G	0.5
G110C U112G	-4.99
U109C U126A	-4.99
C101G G135U	-2.44
A100U U116C G128U U130A	-5.48
C98U C114G	-5.02
